Consider three molecules from paper PMC3630463 (Nature communications, 2013).

Experiment [1] has as its target T1, rVps1 (His-Vps1; yeast dynamin homolog Vps1) (Saccharomyces cerevisiae, UniProt P21576).
T1 sequence (P21576 1-704): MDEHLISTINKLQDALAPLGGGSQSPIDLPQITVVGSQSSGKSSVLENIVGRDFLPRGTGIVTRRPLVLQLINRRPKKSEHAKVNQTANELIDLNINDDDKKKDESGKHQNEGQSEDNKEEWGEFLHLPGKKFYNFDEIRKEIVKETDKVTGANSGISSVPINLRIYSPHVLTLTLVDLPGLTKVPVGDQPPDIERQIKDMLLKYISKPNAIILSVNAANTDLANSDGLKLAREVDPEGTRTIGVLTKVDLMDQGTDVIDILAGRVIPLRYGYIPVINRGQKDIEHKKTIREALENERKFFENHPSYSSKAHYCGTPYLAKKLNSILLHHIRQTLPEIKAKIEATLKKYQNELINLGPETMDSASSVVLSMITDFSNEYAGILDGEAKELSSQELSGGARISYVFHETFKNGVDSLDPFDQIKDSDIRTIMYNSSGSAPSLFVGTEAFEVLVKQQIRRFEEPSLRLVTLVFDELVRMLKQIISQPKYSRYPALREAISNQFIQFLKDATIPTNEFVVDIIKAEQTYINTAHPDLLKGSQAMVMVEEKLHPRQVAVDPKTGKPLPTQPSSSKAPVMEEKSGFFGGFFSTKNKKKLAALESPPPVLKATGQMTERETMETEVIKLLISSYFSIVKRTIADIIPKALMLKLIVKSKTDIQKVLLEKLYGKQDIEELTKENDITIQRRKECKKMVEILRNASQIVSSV
Nature of the experiment: GTPase assay, released Pi by malachite green. The format is biochemical. The note with it: read-out: % inhibition at 100 uM.

Experiment [2] deals with T2, recombinant Vps1 (yeast, UniProt P21576 1-704).
T2 sequence: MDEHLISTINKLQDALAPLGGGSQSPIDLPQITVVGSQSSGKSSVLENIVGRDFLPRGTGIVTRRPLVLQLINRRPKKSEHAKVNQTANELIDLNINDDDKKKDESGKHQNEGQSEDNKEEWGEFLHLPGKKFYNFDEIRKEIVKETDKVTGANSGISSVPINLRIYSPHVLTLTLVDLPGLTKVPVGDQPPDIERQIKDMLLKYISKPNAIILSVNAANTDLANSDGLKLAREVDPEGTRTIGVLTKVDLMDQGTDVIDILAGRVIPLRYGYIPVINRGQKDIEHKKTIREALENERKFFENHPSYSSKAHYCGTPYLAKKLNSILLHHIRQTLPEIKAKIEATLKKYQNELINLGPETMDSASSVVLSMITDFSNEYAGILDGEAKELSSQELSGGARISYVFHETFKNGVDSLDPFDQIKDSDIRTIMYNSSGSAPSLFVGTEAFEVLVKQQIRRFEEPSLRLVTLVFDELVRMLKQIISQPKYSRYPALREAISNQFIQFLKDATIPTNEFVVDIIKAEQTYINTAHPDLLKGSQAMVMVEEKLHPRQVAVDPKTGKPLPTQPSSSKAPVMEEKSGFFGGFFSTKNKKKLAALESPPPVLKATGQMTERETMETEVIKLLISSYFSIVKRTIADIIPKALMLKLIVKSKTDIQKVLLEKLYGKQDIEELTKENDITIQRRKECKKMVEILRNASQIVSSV
Nature of the experiment: far-Western, overlay or dot blot.

Consider `O=C(N/N=C/c1ccc(O)c(O)c1)c1cc2ccccc2cc1O` [dynasore], for which the inhibition at 100 µM in experiment [1] was about 60%.

B1: Vam3 full-length (1–252) (domain or fragment)
chain: MSFFDIEAQSSKGNSQQEPQFSTNQKTKELSNLIETFAEQSRVLEKECTKIGSKRDSKELRYKIETELIPNCTSVRDKIESNILIHQNGKLSADFKNLKTKYQSLQQSYNQRKSLFPLKTPISPGTSKERKDIHPRTEAVRQDPESSYISIKVNEQSPLLHNEGQHQLQLQEEQEQQQQGLSQEELDFQTIIHQERSQQIGRIHTAVQEVNAIFHQLGSLVKEQGEQVTTIDENISHLHDNMQNANKQLTRA
With B1, the binding result in experiment [2] is on record as “binds”.

B2: SNARE domain of Vam3 (190–252) (domain or fragment)
chain: TIIHQERSQQIGRIHTAVQEVNAIFHQLGSLVKEQGEQVTTIDENISHLHDNMQNANKQLTRA
As to B2, the binding result in experiment [2] is recorded as “binds”.

The term inhibition denotes how much of the control response was suppressed.
